Measurements as given in patent US5508261, “Analogs of glycoprotein hormones having altered receptor binding specificity and activity and methods for preparing and using same” (University of Medicine & Dentistry of New Jersey, dated 1996).

What was measured:
[1] = target: T1, bovine testes FSH receptors (bovine, UniProt P35376); assay: inhibition of 125I-hFSH binding to bovine testes FSH receptors (N.D. in Table 3)
[2] = target: rat luteal ovarian LH receptors (rat, UniProt P16235); assay: inhibition of 125I-hCG binding to rat luteal ovarian LH receptors
Experimental: (§1) The concentrations of the analogs were determined by sandwich immunoassay using antibodies B105 and A113. The term "N.D." means not determined because concentrations of analog were not employed high enough to detect 50% inhibition.
An aliquot of the ligation mixture was taken and used to transform DH5-alpha strain E. coli. (obtained from Bethesda Research Laboratories, Gaithersburg, Md.). Plasmid DNAs from ampicillin-resistant DH5-alpha clones were screened by digestion with BglII (which is unique to vectors containing the cassette) and EcoRI (which cuts in the vector). Positive clones were identified by the presence of two fragments (approximately 0.8 Kbp and 2.9 Kbp). […] The remainder of the beta-subunit cDNA (encoding hCGβ amino acids 1–87) was restored by ligation of the 2.3 Kbp PvuI-PvuII fragment of this vector and the 2.9 Kbp PvuI-PvuII fragment from pSVL-hCG-beta'. […] After the DNA was subjected to a dideoxy sequencing procedure to confirm that it encoded "GT" (Table 1), the plasmid DNA was then cotransfected into COS-7 cells (obtained from the American Type Culture Collection) along with pSVL-hCG-alpha, a pSVL-based plasmid encoding the human glycoprotein hormone alpha-subunit (10, 21), using a DEAE-dextran procedure (10).

[3] = target: T1, bovine testes FSH receptors; assay: inhibition of 125I-hFSH binding to bovine testes FSH receptors
Experimental: as §1

Binder	binding result [1]	activity relative to hCG (LH RECEPTORS; ratio of concentrations for 50% inhibition) [2]	binding result [3]	binding result [2]
Analog "GT" (ligand) chain 1: not shown chain 2: SKEPLRPRCRPINATLAVEKEGCPVCITVNITICAGYCPTMTRVLQGVLPALPQVVCNYRDVRFESIRLPGCPRGVNPVVSYAVALSCQCALCRRSTTDCIHEAIKTNYCTKPQKSY	no binding	0.33 relative to recombinant hCG	–	–
recombinant hCG (ligand) chain 1: not shown chain 2: SKEPLRPRCRPINATLAVEKEGCPVCITVNITICAGYCPTMTRVLQGVLPALPQVVCNYRDVRFESIRLPGCPRGVNPVVSYAVALSCQCALCRRSTTDCGGPKDHPLTCDDPRFQDSSSSKAPPPSLPSPSRLPGPSDTPILPQ	–	–	no binding	–
Analog "D" (ligand) chain 1: not shown chain 2: SKEPLRPRCRPINATLAVEKEGCPVCITVNITICAGYCPTMTRVLQGVLPALPQVVCNYRDVRFESIRLPGCPRGVNPVVSYAVALSCQCALCDSDSTDCGGPKDHPLTCDDPRFQDSSSSKAPPPSLPSPSRLPGPSDTPILPQ	no binding	–	–	–
Analog "Q" (ligand) chain 1: not shown chain 2: SKEPLRPRCRPINATLAVEKEGCPVCITVNITICAGYCPTMTRVLQGVLPALPQVVCNYRDVRFESIRLPGCPRGVNPVVSYAVALSCQCALCDSDSTDCGGPKDHPSYCSFGE	–	0.15 relative to recombinant hCG	no binding	–
recombinant hFSH (ligand) chain 1: not shown chain 2: NSCELTNITIAIEKEECRFCISINITWCAGYCYTRDLVYKDPARPKIQKTCTFKELVYETVRVPGCAHHADSLYTYPVALQCHCGKCDSDSTDCTVRGLGPSYCSFGEMKE	–	–	–	no binding
